Experimental findings from paper PMC7163869 are described below.

The experiment addresses Chikungunya virus-like particles (strain 37997) (chikungunya virus (strain 37997)). Nature of the experiment: BLI. On the technique in general: BLI is a label-free optical method that tracks binding on a fibre tip over time.

As a reminder, the Kd is a measure of binding affinity in units of concentration. Low values mean higher affinity, high ones lower affinity. Turning to “Mouse Mxra8 ectodomain 23-296 (from UniProt Q9DBV4 23-296) (domain or fragment)”, the equilibrium dissociation constant (Kd) came out at 66.4 nM.

B1: Cattle Δmoo Mxra8 ectodomain (domain or fragment)
chain: VLLSSGPSGPATSDRSVVSESTVSWAAGARAVLRCQSPRMVWTQDRLHDRQRVVHWDLSGSKAGGPARRLVDMYSTGEQRVYEPRDRGRLLLPPSAFHDGNFSLFIRAVEETDEGLYTCNLHHHYCHLYESLAVSLEVTDDPRAAGAHWDGEKEVLAVERGAPALLTCVNRAHVWTDRHLEEAQQVVHWDRQPPGVPHDRADRLLDLYASGERRAYGPPFLRDRVAVEADAFARGDFSLLIDPVEPADEGTYSCHLHHHYCGLHERRVFHLRVTEPAARPPPPPRDSPGNGSSHSGAPGPGARDPTLTRGRSVINVIVPEGRAHFFQQ
For B1, the Kd was determined as 72.3 nM.
